Test results from the Human Domainome abundance scans (Beltran et al. 2025).
± gives the uncertainty stated by the source.

B1: Friend leukemia integration 1 transcription factor, residues 116 to 197; numbered along this chain, Q01543 (parent)
chain: NMTTNERRVIVPADPTLWTQEHVRQWLEWAIKEYSLMEIDTSFFQNMDGKELCKMNKEDFLRATTLYNTEVLLSHLSYLRES

Variants of: B1
Test: abundance fitness (aPCA) (normalised: wild type 0, dead -1); higher = more abundant; growth selection in yeast, the domain comes from the species named
Conditions: Homo sapiens

| Variant | abundance fitness |
| --- | --- |
| NMTTNERRVIVPADPTLWTQEHVRQNLEWAIKEYSLMEIDTSFFQNMDGKELCKMNKEDFLRATTLYNTEVLLSHLSYLRES | -0.732 ± 0.35 |
| NMTTNERRVIVPADPTLWTQEHVRQQLEWAIKEYSLMEIDTSFFQNMDGKELCKMNKEDFLRATTLYNTEVLLSHLSYLRES | -0.818 ± 0.26 |
| NMTTNERRVIVPADPTLWTQEHVRQELEWAIKEYSLMEIDTSFFQNMDGKELCKMNKEDFLRATTLYNTEVLLSHLSYLRES | -0.921 ± 0.33 |
| NMTTNERRVIVPADPTLWTQEHVRQCLEWAIKEYSLMEIDTSFFQNMDGKELCKMNKEDFLRATTLYNTEVLLSHLSYLRES | -0.626 ± 0.29 |
| NMTTNERRVIVPADPTLWTQEHVRQKLEWAIKEYSLMEIDTSFFQNMDGKELCKMNKEDFLRATTLYNTEVLLSHLSYLRES | -0.813 ± 0.26 |
| NMTTNERRVIVPADPTLWTQEHVRQSLEWAIKEYSLMEIDTSFFQNMDGKELCKMNKEDFLRATTLYNTEVLLSHLSYLRES | -0.402 ± 0.13 |
| NMTTNERRVIVPADPTLWTQEHVRQTLEWAIKEYSLMEIDTSFFQNMDGKELCKMNKEDFLRATTLYNTEVLLSHLSYLRES | -1.01 ± 0.3 |
| NMTTNERRVIVPADPTLWTQEHVRQPLEWAIKEYSLMEIDTSFFQNMDGKELCKMNKEDFLRATTLYNTEVLLSHLSYLRES | -1.04 ± 0.26 |
| NMTTNERRVIVPADPTLWTQEHVRQMLEWAIKEYSLMEIDTSFFQNMDGKELCKMNKEDFLRATTLYNTEVLLSHLSYLRES | -0.445 ± 0.13 |
| NMTTNERRVIVPADPTLWTQEHVRQWLLWAIKEYSLMEIDTSFFQNMDGKELCKMNKEDFLRATTLYNTEVLLSHLSYLRES | -0.013 ± 0.069 |
| NMTTNERRVIVPADPTLWTQEHVRQWLCWAIKEYSLMEIDTSFFQNMDGKELCKMNKEDFLRATTLYNTEVLLSHLSYLRES | 0.009 ± 0.16 |
| NMTTNERRVIVPADPTLWTQEHVRQWLRWAIKEYSLMEIDTSFFQNMDGKELCKMNKEDFLRATTLYNTEVLLSHLSYLRES | -0.018 ± 0.063 |
| NMTTNERRVIVPADPTLWTQEHVRQWLGWAIKEYSLMEIDTSFFQNMDGKELCKMNKEDFLRATTLYNTEVLLSHLSYLRES | -0.189 ± 0.13 |
| NMTTNERRVIVPADPTLWTQEHVRQWLVWAIKEYSLMEIDTSFFQNMDGKELCKMNKEDFLRATTLYNTEVLLSHLSYLRES | -0.035 ± 0.076 |
| NMTTNERRVIVPADPTLWTQEHVRQWLPWAIKEYSLMEIDTSFFQNMDGKELCKMNKEDFLRATTLYNTEVLLSHLSYLRES | -0.745 ± 0.32 |
| NMTTNERRVIVPADPTLWTQEHVRQWLTWAIKEYSLMEIDTSFFQNMDGKELCKMNKEDFLRATTLYNTEVLLSHLSYLRES | -0.017 ± 0.098 |
| NMTTNERRVIVPADPTLWTQEHVRQWLAWAIKEYSLMEIDTSFFQNMDGKELCKMNKEDFLRATTLYNTEVLLSHLSYLRES | 0.006 ± 0.11 |
| NMTTNERRVIVPADPTLWTQEHVRQWLSWAIKEYSLMEIDTSFFQNMDGKELCKMNKEDFLRATTLYNTEVLLSHLSYLRES | -0.123 ± 0.12 |
| NMTTNERRVIVPADPTLWTQEHVRQWLIWAIKEYSLMEIDTSFFQNMDGKELCKMNKEDFLRATTLYNTEVLLSHLSYLRES | 0.141 ± 0.23 |
| NMTTNERRVIVPADPTLWTQEHVRQWLMWAIKEYSLMEIDTSFFQNMDGKELCKMNKEDFLRATTLYNTEVLLSHLSYLRES | -0.187 ± 0.15 |
| NMTTNERRVIVPADPTLWTQEHVRQWLNWAIKEYSLMEIDTSFFQNMDGKELCKMNKEDFLRATTLYNTEVLLSHLSYLRES | -0.377 ± 0.49 |
| NMTTNERRVIVPADPTLWTQEHVRQWLQWAIKEYSLMEIDTSFFQNMDGKELCKMNKEDFLRATTLYNTEVLLSHLSYLRES | 0.005 ± 0.12 |
| NMTTNERRVIVPADPTLWTQEHVRQWLYWAIKEYSLMEIDTSFFQNMDGKELCKMNKEDFLRATTLYNTEVLLSHLSYLRES | -0.12 ± 0.25 |

| Variant | abundance fitness |
| --- | --- |
| NMTTNERRVIVPADPTLWTQEHVRQWLWWAIKEYSLMEIDTSFFQNMDGKELCKMNKEDFLRATTLYNTEVLLSHLSYLRES | -0.285 ± 0.11 |
| NMTTNERRVIVPADPTLWTQEHVRQWLFWAIKEYSLMEIDTSFFQNMDGKELCKMNKEDFLRATTLYNTEVLLSHLSYLRES | -0.366 ± 0.28 |
| NMTTNERRVIVPADPTLWTQEHVRQWLKWAIKEYSLMEIDTSFFQNMDGKELCKMNKEDFLRATTLYNTEVLLSHLSYLRES | 0.058 ± 0.098 |
| NMTTNERRVIVPADPTLWTQEHVRQWWEWAIKEYSLMEIDTSFFQNMDGKELCKMNKEDFLRATTLYNTEVLLSHLSYLRES | -0.856 ± 0.19 |
| NMTTNERRVIVPADPTLWTQEHVRQWAEWAIKEYSLMEIDTSFFQNMDGKELCKMNKEDFLRATTLYNTEVLLSHLSYLRES | -0.229 ± 0.11 |
| NMTTNERRVIVPADPTLWTQEHVRQWGEWAIKEYSLMEIDTSFFQNMDGKELCKMNKEDFLRATTLYNTEVLLSHLSYLRES | -0.284 ± 0.12 |
| NMTTNERRVIVPADPTLWTQEHVRQWFEWAIKEYSLMEIDTSFFQNMDGKELCKMNKEDFLRATTLYNTEVLLSHLSYLRES | 0.079 ± 0.14 |
| NMTTNERRVIVPADPTLWTQEHVRQWYEWAIKEYSLMEIDTSFFQNMDGKELCKMNKEDFLRATTLYNTEVLLSHLSYLRES | -0.834 ± 0.25 |
| NMTTNERRVIVPADPTLWTQEHVRQWDEWAIKEYSLMEIDTSFFQNMDGKELCKMNKEDFLRATTLYNTEVLLSHLSYLRES | -0.532 ± 0.37 |
| NMTTNERRVIVPADPTLWTQEHVRQWKEWAIKEYSLMEIDTSFFQNMDGKELCKMNKEDFLRATTLYNTEVLLSHLSYLRES | -0.708 ± 0.22 |
| NMTTNERRVIVPADPTLWTQEHVRQWEEWAIKEYSLMEIDTSFFQNMDGKELCKMNKEDFLRATTLYNTEVLLSHLSYLRES | -0.857 ± 0.33 |
| NMTTNERRVIVPADPTLWTQEHVRQWREWAIKEYSLMEIDTSFFQNMDGKELCKMNKEDFLRATTLYNTEVLLSHLSYLRES | -0.876 ± 0.18 |
| NMTTNERRVIVPADPTLWTQEHVRQWTEWAIKEYSLMEIDTSFFQNMDGKELCKMNKEDFLRATTLYNTEVLLSHLSYLRES | -0.383 ± 0.2 |
| NMTTNERRVIVPADPTLWTQEHVRQWVEWAIKEYSLMEIDTSFFQNMDGKELCKMNKEDFLRATTLYNTEVLLSHLSYLRES | 0.035 ± 0.093 |
| NMTTNERRVIVPADPTLWTQEHVRQWSEWAIKEYSLMEIDTSFFQNMDGKELCKMNKEDFLRATTLYNTEVLLSHLSYLRES | -0.438 ± 0.093 |
| NMTTNERRVIVPADPTLWTQEHVRQWHEWAIKEYSLMEIDTSFFQNMDGKELCKMNKEDFLRATTLYNTEVLLSHLSYLRES | -0.463 ± 0.26 |
| NMTTNERRVIVPADPTLWTQEHVRQWIEWAIKEYSLMEIDTSFFQNMDGKELCKMNKEDFLRATTLYNTEVLLSHLSYLRES | -0.132 ± 0.19 |
| NMTTNERRVIVPADPTLWTQEHVRQWCEWAIKEYSLMEIDTSFFQNMDGKELCKMNKEDFLRATTLYNTEVLLSHLSYLRES | -0.384 ± 0.38 |
| NMTTNERRVIVPADPTLWTQEHVRSWLEWAIKEYSLMEIDTSFFQNMDGKELCKMNKEDFLRATTLYNTEVLLSHLSYLRES | -0.246 ± 0.12 |
| NMTTNERRVIVPADPTLWTQEHVRVWLEWAIKEYSLMEIDTSFFQNMDGKELCKMNKEDFLRATTLYNTEVLLSHLSYLRES | 0.078 ± 0.091 |
| NMTTNERRVIVPADPTLWTQEHVRGWLEWAIKEYSLMEIDTSFFQNMDGKELCKMNKEDFLRATTLYNTEVLLSHLSYLRES | -0.039 ± 0.073 |
| NMTTNERRVIVPADPTLWTQEHVRRWLEWAIKEYSLMEIDTSFFQNMDGKELCKMNKEDFLRATTLYNTEVLLSHLSYLRES | -0.006 ± 0.081 |
| NMTTNERRVIVPADPTLWTQEHVRHWLEWAIKEYSLMEIDTSFFQNMDGKELCKMNKEDFLRATTLYNTEVLLSHLSYLRES | -0.083 ± 0.25 |

| Variant | abundance fitness |
| --- | --- |
| NMTTNERRVIVPADPTLWTQEHVRWWLEWAIKEYSLMEIDTSFFQNMDGKELCKMNKEDFLRATTLYNTEVLLSHLSYLRES | -0.251 ± 0.1 |
| NMTTNERRVIVPADPTLWTQEHVRPWLEWAIKEYSLMEIDTSFFQNMDGKELCKMNKEDFLRATTLYNTEVLLSHLSYLRES | -0.915 ± 0.25 |
| NMTTNERRVIVPADPTLWTQEHVRNWLEWAIKEYSLMEIDTSFFQNMDGKELCKMNKEDFLRATTLYNTEVLLSHLSYLRES | 0.092 ± 0.14 |
| NMTTNERRVIVPADPTLWTQEHVRTWLEWAIKEYSLMEIDTSFFQNMDGKELCKMNKEDFLRATTLYNTEVLLSHLSYLRES | -0.045 ± 0.081 |
| NMTTNERRVIVPADPTLWTQEHVRMWLEWAIKEYSLMEIDTSFFQNMDGKELCKMNKEDFLRATTLYNTEVLLSHLSYLRES | -0.187 ± 0.12 |
| NMTTNERRVIVPADPTLWTQEHVRLWLEWAIKEYSLMEIDTSFFQNMDGKELCKMNKEDFLRATTLYNTEVLLSHLSYLRES | -0.093 ± 0.15 |
| NMTTNERRVIVPADPTLWTQEHVRKWLEWAIKEYSLMEIDTSFFQNMDGKELCKMNKEDFLRATTLYNTEVLLSHLSYLRES | 0.041 ± 0.13 |
| NMTTNERRVIVPADPTLWTQEHVRYWLEWAIKEYSLMEIDTSFFQNMDGKELCKMNKEDFLRATTLYNTEVLLSHLSYLRES | -0.143 ± 0.14 |
| NMTTNERRVIVPADPTLWTQEHVRQWLEKAIKEYSLMEIDTSFFQNMDGKELCKMNKEDFLRATTLYNTEVLLSHLSYLRES | 0.005 ± 0.081 |
| NMTTNERRVIVPADPTLWTQEHVRQWLEQAIKEYSLMEIDTSFFQNMDGKELCKMNKEDFLRATTLYNTEVLLSHLSYLRES | 0.084 ± 0.09 |
| NMTTNERRVIVPADPTLWTQEHVRQWLELAIKEYSLMEIDTSFFQNMDGKELCKMNKEDFLRATTLYNTEVLLSHLSYLRES | -0.116 ± 0.05 |
| NMTTNERRVIVPADPTLWTQEHVRQWLERAIKEYSLMEIDTSFFQNMDGKELCKMNKEDFLRATTLYNTEVLLSHLSYLRES | 0.003 ± 0.055 |
| NMTTNERRVIVPADPTLWTQEHVRQWLEPAIKEYSLMEIDTSFFQNMDGKELCKMNKEDFLRATTLYNTEVLLSHLSYLRES | -1.01 ± 0.18 |
| NMTTNERRVIVPADPTLWTQEHVRQWLECAIKEYSLMEIDTSFFQNMDGKELCKMNKEDFLRATTLYNTEVLLSHLSYLRES | -0.041 ± 0.091 |
| NMTTNERRVIVPADPTLWTQEHVRQWLEAAIKEYSLMEIDTSFFQNMDGKELCKMNKEDFLRATTLYNTEVLLSHLSYLRES | 0.101 ± 0.062 |
| NMTTNERRVIVPADPTLWTQEHVRQWLEEAIKEYSLMEIDTSFFQNMDGKELCKMNKEDFLRATTLYNTEVLLSHLSYLRES | 0.212 ± 0.08 |
| NMTTNERRVIVPADPTLWTQEHVRQWLEHAIKEYSLMEIDTSFFQNMDGKELCKMNKEDFLRATTLYNTEVLLSHLSYLRES | -0.033 ± 0.12 |
| NMTTNERRVIVPADPTLWTQEHVRQWLENAIKEYSLMEIDTSFFQNMDGKELCKMNKEDFLRATTLYNTEVLLSHLSYLRES | 0.432 ± 0.32 |
| NMTTNERRVIVPADPTLWTQEHVRQWLEIAIKEYSLMEIDTSFFQNMDGKELCKMNKEDFLRATTLYNTEVLLSHLSYLRES | -0.029 ± 0.22 |
| NMTTNERRVIVPADPTLWTQEHVRQWLEGAIKEYSLMEIDTSFFQNMDGKELCKMNKEDFLRATTLYNTEVLLSHLSYLRES | 0.168 ± 0.052 |
| NMTTNERRVIVPADPTLWTQEHVRQWLEDAIKEYSLMEIDTSFFQNMDGKELCKMNKEDFLRATTLYNTEVLLSHLSYLRES | 0.189 ± 0.35 |
